This is an account of results in paper PMC6592955.

Assay [1] has as its target calmodulin (CaM) (UniProt P0DP26). The experiment in a line: 2pFLIM-FRET in single dendritic spines. Conditions: reference: wild type.
The target in assay [2] is mEGFP-CaMKIIα^T286A (Rattus norvegicus) (UniProt P11275). The experiment in a line: FRET or BRET; 2pFLIM-FRET in single dendritic spines of CA1 pyramidal neurons, organotypic hippocampal slices; glutamate uncaging at near physiological temperature (34–35 °C); Supplementary Fig. 2. (Bioluminescence resonance energy transfer reports proximity on the nanometre scale.)
Assay [3] has the same target. Put plainly: FRET or BRET; 2pFLIM-FRET in single dendritic spines of CA1 pyramidal neurons, organotypic hippocampal slices; single glutamate uncaging pulse; room temperature; decay fitted with a single exponential; T286A in slices of Camk2a^T286A knock-in mice.
The target of assay [4] is mEGFP-CaMKIIα^T305A/T306A (Rattus norvegicus) (UniProt P11275). Described as above.
Assay [5] addresses mEGFP-CaMKIIα (wildtype) (Rattus norvegicus) (UniProt P11275). The experiment in a line: FRET or BRET; 2pFLIM-FRET in single dendritic spines of CA1 pyramidal neurons, organotypic hippocampal slices; glutamate uncaging at near physiological temperature (34–35 °C); Supplementary Fig. 2.
For assay [6] the target is unchanged. The experiment in a line: FRET or BRET; 2pFLIM-FRET in single dendritic spines of CA1 pyramidal neurons, organotypic hippocampal slices; single glutamate uncaging pulse; room temperature; decay fitted with a single exponential; T286A in slices of Camk2a^T286A knock-in mice.

On to CaMKIIα (from UniProt P11275) T286A, for which, in assay [1] (sites T286), the “other: dissociation time constant” value is “weaker; reference 2.9 ± 0.3” and the “other: fast dissociation time constant” value is listed as “weaker; reference 3.2 ± 0.6”.

In the case of “CaMKIIα (from UniProt P11275) T305A/T306A”, in assay [1] (sites T305,T306), the “other: dissociation time constant” value was “stronger; reference 2.9 ± 0.3” and the “other: fast dissociation time constant” value is “stronger; reference 3.2 ± 0.6”.

Regarding “mCherry-CaM (from UniProt P0DP26 1-149) (natural protein)”, the figures for the dissociation time constant (tau) in assay [2], in assay [3] and in assay [4] were 0.3 s, 1.2 s and 7.5 s, respectively.

In turn, “mCherry-CaM (from UniProt P0DP26 1-149) (natural protein; other documents disagree on this pair)” showed a dissociation time constant (tau) in assay [5] of 0.4 s. Further, in assay [6], the dissociation time constant (tau) was determined as 2.9 s and the off-rate constant (koff) stood at 0.33 s⁻¹.

A word on the koff: it is the first-order rate constant of dissociation. High values mean a short-lived complex, low ones a long-lived complex.
